Values of other authors as cited in article PMC10361579.
Values joined by “and” are separate entries in the source; they are usually repeats but may differ in a detail not shown here. Equal entries are not always repeated.

What was measured:
[1] = biological target: classical cadherin (X-dimer) (UniProt P12830)
[2] = biological target: classical cadherin (strand-swap dimer) (UniProt P12830)

Kd [1] [µM] | Kd [2] | Substance
916 |  | classical cadherin (X-dimer) (from UniProt P12830)
 | 64 µM and 97 µM | classical cadherin (strand-swap dimer) (from UniProt P12830)
